Here are results for one molecule from patent US20200207859A1 (priority 2017, published 2020).

In one assay the test system is OPM-2 (MM). Nature of the assay: Cell killing assay (cell proliferation, Cell Titer-Glo). Conditions: 72 hrs. Details: key to Cell Killing Activity Span: NK = no killing; NB = no binding. It counts as cell-based. The procedure:
(§1) Cytotoxicity effects of the free drug linkers and conjugates were measured with a cell proliferation assay. A total of 12500 cells in a volume of 25 μl were seeded in a 384-well flat bottom white polystyrene plate on the day of assay. Free drug-linkers and conjugates were formulated at 2× starting concentration (1000 nM for free drug linkers and 100 nM for ADCs) in RPMI medium and filtered through MultiScreen HTS 96-Well Filter Plates (Millipore). Filter sterilized samples were serial diluted (1:3) under sterile conditions and added into treatment wells. Plates were cultured at 37° C. in a CO2 incubator for 72 hrs. For cell viability measurement, 30 μl of Cell Titer-Glo® reagent (Promega Corp.) was added into each well, and plates processed as per product instructions. Relative luminescence was measured on an ENVISION® plate reader (Perkin-Elmer; Waltham, Mass.). Relative luminescence readings were converted to % viability using untreated cells as controls. Data was fitted with non-linear regression analysis, using log(inhibitor) vs. response, variable slope, 4 parameter fit equation using GraphPad Prism. Data was expressed as % relative cell viability vs. dose of free drug-linker or conjugate in nM.
(In general: ATP-based viability assays read luminescence as a measure of living cells.)

A further assay deals with K562 (CML). Described as above. The following applies: 72 hrs. It counts as cell-based. Details: key to Cell Killing Activity Span: NK = no killing; NB = no binding. On the procedure:
as §1

The next assay has as its system RPMI-8226 (MM). The assay is described as above. It counts as cell-based. Further details: key to Cell Killing Activity Span: NK = no killing; NB = no binding. The following applies: 72 hrs. The procedure:
as §1

Another assay deals with HuT-78 T lymphoma cells. In words: T lymphoma cell line cell killing assay. It counts as cell-based. Conditions: HuT-78, 120 hours. The procedure:
(§2) A total of 12500 cells in a volume of 25 μL were seeded in a 384-well flat bottom white polystyrene plate the day before the assay. […] Filter-sterilized compounds were serial diluted in culture medium and 25 μL of the compounds were added into treatment wells in quadruplicates. Plates were cultured at 37° C. in a CO2 incubator for 120 hours. For cell viability measurement, 30 μL of Cell Titer-Glo® reagent (Promega Corp.; Madison, Wis.) was added into each well, and plates were processed per product instructions. Relative luminescence was measured on an ENVISION® plate reader (Perkin-Elmer; Waltham, Mass.). Relative luminescence readings were converted to percent (%) viability using untreated cells as controls. Data was fitted with non-linear regression analysis, using log(inhibitor) vs. response, variable slope, 4-parameter fit equation using GraphPad Prism (GraphPad v 5.00, Software; San Diego, Calif.). Data was expressed as percent (%) relative cell viability (average of the quadruplicates) vs. dose of compounds in units of nanomolar (nM). Cell killing EC50 values and span were calculated by Prism in order to evaluate the potency of each compound on each cell line.

The next assay has as its system HH T lymphoma cells. Nature of the assay: T lymphoma cell line cell killing assay. It counts as cell-based. The following applies: 120 hours. The procedure: as §2
Another assay relates to My-La T lymphoma cells. Nature of the assay: T lymphoma cell line cell killing assay. It is filed as cell-based. Conditions: 120 hours. The procedure:
as §2

In another assay the test system is Jurkat T leukemia cells. In words: T lymphoma cell line cell killing assay. It counts as cell-based. Conditions: 120 hours. Further details: key to Cell killing Span: NC = Not Calculable; NK = No Killing. On the procedure:
as §2

The test system of a further assay is MJ T lymphoma cells. Nature of the assay: T lymphoma cell line cell killing assay. It is filed as cell-based. Further details: key to Cell killing Span: NC = Not Calculable; NK = No Killing. The following applies: 120 hours. The procedure: as §2
The test system of assay [1] is ARP-1 multiple myeloma cells. Nature of the assay: Disseminated ARP-1 multiple myeloma model. It counts as in vivo, mouse. The following applies: CB17 SCID mice, ARP-1 i.v., 3 mg/kg q7dx4 IV. The procedure:
Female CB17 SCID (severe combined immunodeficiency) were inoculated with ARP-1 cells via tail vein injection. Prior to tumor cell inoculation, animals were pre-treated with 0.4 mg/mouse Fludarabine and 2 mg/mouse Cyclophosphamide (intraperitoneal injection). Randomization and treatment was initiated 14 days post tumor inoculation. Treatment groups are outlined in Table 4. All test articles were formulated in 10 mM citrate pH 6.0, 10% sucrose and diluted with PBS. Animals were administered with the designated test article four times every 7 days (q7dx4) by intravenous injection. […] Body weights were monitored twice per week. When vehicle control animals reached the study endpoint (euthanized due to large, palpable internal tumors), three animals from the Group 2 and Group 3 were euthanized for necropsy and bone marrow harvest (from tibia and femur) for flow cytometry. The remaining animals in treated groups were monitored for up to 3 months after start of treatment.
Bone marrow cells from mouse femur and tibia were pooled and assessed for CD138 expression using the Alexa Fluor 647 mouse anti-human CD138 clone MI15 (BD Biosciences #562097) according to the manufacturer's protocol. Direct immunofluorescence flow cytometric analysis was performed using an LSRII flow cytometer and FACS Diva Software. Data was analyzed using Flowjo (Tree Star, Inc., Ashland, Oreg.).
Body weight, tissue volume, or tissue weights at study endpoint, were analyzed using a one-way analysis of variance (ANOVA) with Dunnett's multiple comparison test. A probability of less than 5% (p<0.05) was considered as significant.

B1: Conjugate A: anti-CD74 IgG with pAMF at heavy chain EU position 404 conjugated to DBCO-PEG4-maytansine (conjugate)
VH: QVQLVESGGGVVQPGRSLRLSCAASGFNFSDYGMHWVRQAPGKGLEWVAVIWYDGSISYYADSVKGRFTISRDNSKNTLYLQMNSLRAEDTAVYYCARGGTVEHGAVYGTDVWGQGTTVTVSS
VL: DIQMTQSPSSVSASVGDRVTITCRASQGIGSWLAWYQQKPGKAPKLLIYAADRLQSGVPSRFSGSGSGTDFTLTISSLQPEDFATYYCQQYHTYPLTFGGGTKVEIK
modifications: non-natural residues
For the molecule B1, the “Cell Killing Activity Span” value with OPM-2 (MM), in the assay on K562 (CML) and with RPMI-8226 (MM) was “NK” throughout. Also, the half-inhibitory concentration (IC50) in the assay on OPM-2 (MM), in the assay on K562 (CML) and with RPMI-8226 (MM) was greater than 50 nM each time. Moreover, the “Cell killing Span” value in the assay on HuT-78 T lymphoma cells is on record as 72%; in the assay with HH T lymphoma cells, 77%; in the assay with My-La T lymphoma cells it was 73%; with Jurkat T leukemia cells, “NK”; with MJ T lymphoma cells, “NC”. The EC50 in the assay with HuT-78 T lymphoma cells is 0.59 nM; in the assay with HH T lymphoma cells, 0.22 nM; with My-La T lymphoma cells, 0.54 nM; in the assay on Jurkat T leukemia cells it was greater than 50 nM. Moreover, the “cell killing activity (in words)” value in the assay with HuT-78 T lymphoma cells is recorded as “potent cell killing activity”; in the assay with HH T lymphoma cells, “potent cell killing activity”; in the assay with My-La T lymphoma cells, “potent cell killing activity”; with Jurkat T leukemia cells, “No cell killing was observed”; in the assay on MJ T lymphoma cells, “less potent cell killing”. In addition, in assay [1], the “body weight change (BWC)” value was “No meaningful change in body weight”. For the same molecule, in assay [1], the “delay of weight gain after first round of treatment” value is “approximately 20 days”. The “human CD138 positive ARP-1 myeloma cells in the bone marrow (femur and tibia)” value in [1] (flow cytometry) is recorded as “substantially inhibited ARP-1 growth in the bone marrow”. Besides, the “kidney and ovary tissue weights” value in [1] (n=3) is “comparable tissue weights to untreated age-matched control animals”.

Usually IC50 stands for the concentration at which inhibition is half-maximal. What is called EC50 is the midpoint of the concentration-response curve.
